Experimental data published in article doi:10.1101/2025.03.26.645568.

Target: Mam1A_(107-213) (Mycobacterium tuberculosis H37Rv)
Test: SEC-MALS

Substance: Mam1A_(107-213) (domain or fragment)
- stoichiometry N: 4
